Results published in patent EP2922560B1.

Target: native human IL-23 receptor on the surface of cultured human cells (K-562, THP-1, Jurkat) and primary human T-cells (human) (UniProt Q5VWK5)
Assay: cell-based or functional assay

Sequence of native human IL-23 receptor on the surface of cultured human cells (K-562, THP-1, Jurkat) and primary human T-cells (human) (Q5VWK5 24-629): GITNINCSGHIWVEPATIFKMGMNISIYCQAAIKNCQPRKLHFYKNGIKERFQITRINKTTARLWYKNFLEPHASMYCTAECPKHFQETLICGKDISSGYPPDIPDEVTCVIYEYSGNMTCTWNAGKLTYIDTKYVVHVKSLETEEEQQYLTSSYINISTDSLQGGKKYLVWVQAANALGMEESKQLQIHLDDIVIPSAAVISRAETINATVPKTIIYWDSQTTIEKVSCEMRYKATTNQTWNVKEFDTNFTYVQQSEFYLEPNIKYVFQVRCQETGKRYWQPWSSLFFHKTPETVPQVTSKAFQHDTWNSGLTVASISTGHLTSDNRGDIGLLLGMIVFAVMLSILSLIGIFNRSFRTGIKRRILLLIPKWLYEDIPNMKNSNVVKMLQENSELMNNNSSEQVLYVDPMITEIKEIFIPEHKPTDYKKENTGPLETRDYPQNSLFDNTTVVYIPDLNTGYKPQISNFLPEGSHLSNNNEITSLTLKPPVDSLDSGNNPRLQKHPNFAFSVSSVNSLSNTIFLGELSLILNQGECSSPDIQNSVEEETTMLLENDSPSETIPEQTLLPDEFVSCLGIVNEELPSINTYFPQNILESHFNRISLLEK

A Th-17+ cell expansion (IL-17-producing cells) in PBMC suspensions after 3 days, normalized to IL-23 only = 1 (normalized cell count (IL-23 only = 1)) of 0.88 and a Th-17+ cell expansion in separated T-cell samples after 3 days, normalized to IL-23 only = 1 (normalized cell count (IL-23 only = 1)) of 0.99 were found for “His6-ABDwt-TolA-AVI (from UniProt P19934 131-421)” in this work.
